# B1: protease 1 from Pyrococcus horikoshii (enzyme)
# chain: MKVLFLTANEFEDVELIYPYHRLKEEGHEVYIASFERGTITGKHGYSVKVDLTFDKVNPEEFDALVLPGGRAPERVRLNEKAVSIARKMFSEGKPVASICHGPQILISAGVLRGRKGTSYPGIKDDMINAGVEWVDAEVVVDGNWVSSRVPADLYAWMREFVKLLK
# notes: protease 1 (P1) from Pyrococcus horikoshii; Hexamer; also called P1; source: purified following existing protocols (Engilberge et al., 2017)
# Molecular target: the molecule itself
# Assay: SAXS; P1 in solution, 20 mM Tris pH 7.5, 150 mM NaCl, 15°C, flow mode, SWING beamline; contrast series with Gd-HPDO3A (up to 1341 mM) or iohexol (up to 618 mM); CRYSOL fits with a hexameric atomic model, linearity of I(0)^1/2, Rg
protein,measurement,value
B1,stoichiometry N,6
